The source of these data is patent US20150125477A1 (IMMATICS BIOTECHNOLOGIES, published 2015).

In this test the target is T1, A*0201 (biotinylated pMHC monomer from UV-induced MHC ligand exchange) (human, biotin).
T1 construct: pMHC complexes for aAPC loading and multimer read-out
As to the kind of experiment: pMHC complex from UV-induced MHC ligand exchange, used as control. How it is done:
Generation of pMHC/anti-CD28 coated beads, T-cell stimulations and readout was performed in a highly defined in vitro system using four different pMHC molecules per stimulation condition and 8 different pMHC molecules per readout condition. […] In order to determine the amount of pMHC monomer obtained by exchange we performed streptavidin-based sandwich ELISAs according to (Rodenko et al., 2006). The purified co-stimulatory mouse IgG2a anti human CD28 Ab 9.3 (Jung et al., 1987) was chemically biotinylated using Sulfo-N-hydroxysuccinimidobiotin as recommended by the manufacturer (Perbio, Bonn, Germany). Beads used were 5.6 μm diameter streptavidin coated polystyrene particles (Bangs Laboratories, Illinois, USA).
Half of the medium was then exchanged by fresh TCM supplemented with 80 U/ml IL-2 and incubating was continued for 3-4 days at 37° C. […] Finally, multimeric analyses were performed by staining the cells with Live/dead near IR dye (Invitrogen, Karlsruhe, Germany), CD8-FITC antibody clone SK1 (BD, Heidelberg, Germany) and fluorescent pMHC multimers. For analysis, a BD LSRII SORP cytometer equipped with appropriate lasers and filters was used. Peptide specific cells were calculated as percentage of total CD8+ cells. Evaluation of multimeric analysis was done using the FlowJo software (Tree Star, Oregon, USA).

As to YLLPAIVHI (control for low immunogenic stimulation) [DDX5-001], the binding result is given as “binds”.
